Test results from publication PMC12509757.
Where a chain is given by its changes, count along the chain named. Names and notes keep the numbering of the source. One block for each binder: values may come before it.

Assays:
[1] = biological target: microtubules of HEK293T cells (microtubule fraction), P68363;P07437; test: tubulin/microtubule fractionation of HEK293T lysates (immunoblot); details: chain shown with the change;
[2] = biological target: microtubules of osteoclasts (polymerized from endogenous tubulin) (mouse (endogenous in RAW264.7-derived osteoclasts)) (UniProt P05213); test: co-sedimentation; tubulin/microtubule fractionation of Arhgap10 KO #28 osteoclasts expressing doxycycline-induced myc-ARHGAP10 constructs; immunoblot (Fig. S2)
microtubules of osteoclasts (polymerized from endogenous tubulin) (mouse (endogenous in RAW264.7-derived osteoclasts)), sequence (P05213 whole entry, chain 1 of 2): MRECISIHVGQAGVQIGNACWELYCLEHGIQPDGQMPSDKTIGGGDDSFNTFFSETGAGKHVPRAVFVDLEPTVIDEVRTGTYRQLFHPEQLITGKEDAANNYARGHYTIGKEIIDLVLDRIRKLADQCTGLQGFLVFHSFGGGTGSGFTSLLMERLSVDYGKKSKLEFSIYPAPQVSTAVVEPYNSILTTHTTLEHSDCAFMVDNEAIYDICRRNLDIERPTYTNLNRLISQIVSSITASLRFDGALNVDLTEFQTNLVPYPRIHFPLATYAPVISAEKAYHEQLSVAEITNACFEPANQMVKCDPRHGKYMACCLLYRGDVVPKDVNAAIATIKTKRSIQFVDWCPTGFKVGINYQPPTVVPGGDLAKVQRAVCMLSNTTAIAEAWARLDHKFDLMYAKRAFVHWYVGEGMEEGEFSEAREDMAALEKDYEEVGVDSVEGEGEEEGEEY
microtubules of osteoclasts (polymerized from endogenous tubulin) (mouse (endogenous in RAW264.7-derived osteoclasts)), sequence (P99024 whole entry, chain 2 of 2, further chain): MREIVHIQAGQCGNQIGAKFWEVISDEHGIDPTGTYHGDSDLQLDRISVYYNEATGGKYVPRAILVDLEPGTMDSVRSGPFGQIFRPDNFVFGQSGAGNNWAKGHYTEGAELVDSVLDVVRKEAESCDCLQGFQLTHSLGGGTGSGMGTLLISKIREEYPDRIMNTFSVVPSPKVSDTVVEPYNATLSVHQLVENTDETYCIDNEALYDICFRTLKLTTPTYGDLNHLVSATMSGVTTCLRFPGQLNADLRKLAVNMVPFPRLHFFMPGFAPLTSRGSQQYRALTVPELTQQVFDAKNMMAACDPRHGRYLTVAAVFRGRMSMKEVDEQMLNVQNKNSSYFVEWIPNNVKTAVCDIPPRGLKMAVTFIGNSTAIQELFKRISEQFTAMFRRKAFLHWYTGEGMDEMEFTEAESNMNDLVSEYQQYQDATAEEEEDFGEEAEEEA

[3] = biological target: microtubules polymerized from pig brain tubulin (pig) (UniProt P02550); test: co-sedimentation; in vitro; recombinant His GST protein (1 μM in the legends, 2 μM in the methods) with increasing concentrations of microtubules from pig brain tubulin (or BSA instead) in 1X BRB80, 1 mM DTT, 20 μM paclitaxel, 5 min at room temperature; 100,000g, 15 min, 30 °C through 40% glycerol; immunoblot of supernatant and pellet; apparent Kd, one site-specific binding fit

microtubules of HEK293T cells (microtubule fraction), P68363;P07437, sequence (chain, as listed by the source, chain 1 of 2): as the sequence (P05213 whole entry, chain 1 of 2) above
microtubules of HEK293T cells (microtubule fraction), P68363;P07437, sequence (chain, as listed by the source, chain 2 of 2): as the sequence (P99024 whole entry, chain 2 of 2, further chain) above

response ([1]; parent: 59.1): 26 % in MT
B1: myc-tagged full-length human ARHGAP10, WT (HEK293T), A1A4S6 K37E; K41E; K44E (protein)
chain: MGLQPLEFSDCYLDSPWFRERIRAHEAELERTNKFIEELIEDGENLIAATKSLSVAQRKFAHSLRDFKFEFIGDAVTDDERCIDASLREFSNFLKNLEEQREIMALSVTETLIKPLEKFRKEQLGAVKEEKKKFDKETEKNYSLIDKHLNLSAKKKDSHLQEADIQVEQNRQHFYELSLEYVCKLQEIQERKKFEFVEPMLSFFQGMFTFYHQGHELAKDFNHYKMELQINIQNTRNRFEGTRSEVEELMNKIRQNPKDHKRASQFTAEGYLYVQEKRPAPFGSSWVKHYCMYRKAAKKFNMIPFEHRSGGKLGDGEVFFLKECTKRHTDSIDRRFCFDIEAADRPGVSLTMQAFSEEERKQWLEALGGKEALSHSFNTAIIPRPEGNAQLDKMGFTIIRKCISAVETRGINDQGLYRVVGVSSKVQRLLSMLMDVKTCNEVDLENSADWEVKTITSALKQYLRSLPEPLMTYELHGDFIVPAKSGSPESRVNAIHFLVHKLPEKNKEMLDILVKHLTNVSNHSKQNLMTVANLGVVFGPTLMRPQEETVAALMDLKFQNIVVEILIENHEKIFRTPPDTTFPEPTCLSASPPNAPPRQSKRQGQRTKRPVAVYNLCLELEDGDNPYPSKEDTPTSSLDSLSSPSPVTTAVPGPPGPDKNHLLADGGSFGDWASTIPGQTRSSMVQWLNPQSPTTTSSNSAVTPLSPGSSPFPFSPPATVADKPPESIRSRKARAVYPCEAEHSSELSFEIGAIFEDVQTSREPGWLEGTLNGKRGLIPQNYVKLL

percent associated with the microtubule-containing fraction [2]: 50%
B2: myc-tagged full-length ARHGAP10, WT, re-expressed in Arhgap10 KO osteoclasts (natural protein)
chain: B1 chain with E37K, E41K, E44K

response ([1]; parent: 60): 32.7 % in MT
B3: myc-tagged BAR-PH (aa 1-388) of ARHGAP10, WT, A1A4S6 K37E; K41E; K44E (protein)
chain: MGLQPLEFSDCYLDSPWFRERIRAHEAELERTNKFIEELIEDGENLIAATKSLSVAQRKFAHSLRDFKFEFIGDAVTDDERCIDASLREFSNFLKNLEEQREIMALSVTETLIKPLEKFRKEQLGAVKEEKKKFDKETEKNYSLIDKHLNLSAKKKDSHLQEADIQVEQNRQHFYELSLEYVCKLQEIQERKKFEFVEPMLSFFQGMFTFYHQGHELAKDFNHYKMELQINIQNTRNRFEGTRSEVEELMNKIRQNPKDHKRASQFTAEGYLYVQEKRPAPFGSSWVKHYCMYRKAAKKFNMIPFEHRSGGKLGDGEVFFLKECTKRHTDSIDRRFCFDIEAADRPGVSLTMQAFSEEERKQWLEALGGKEALSHSFNTAIIPRPEGN

Kd [3]: 1270 nM
B4: His GST BAR-PH (aa 1-388) of ARHGAP10, WT (domain or fragment)
chain: B3 chain with E37K, E41K, E44K
